Drawing on publication doi:10.1101/2025.08.14.670383, this text covers Col3-induced increase in activity, SRE-luciferase assay in HEK293T cells for one substance.

Where only a bound is given, the exact number is not on record here.

The target in this assay is ADGRG1_h1h2: ADGRG1 receptor bearing the designed GAIN domain SS_h1h2, on HEK293T cells (human) (UniProt Q9Y653).
Chain of UniProt Q9Y653 (Q9Y653 26-693 V174C/S218C): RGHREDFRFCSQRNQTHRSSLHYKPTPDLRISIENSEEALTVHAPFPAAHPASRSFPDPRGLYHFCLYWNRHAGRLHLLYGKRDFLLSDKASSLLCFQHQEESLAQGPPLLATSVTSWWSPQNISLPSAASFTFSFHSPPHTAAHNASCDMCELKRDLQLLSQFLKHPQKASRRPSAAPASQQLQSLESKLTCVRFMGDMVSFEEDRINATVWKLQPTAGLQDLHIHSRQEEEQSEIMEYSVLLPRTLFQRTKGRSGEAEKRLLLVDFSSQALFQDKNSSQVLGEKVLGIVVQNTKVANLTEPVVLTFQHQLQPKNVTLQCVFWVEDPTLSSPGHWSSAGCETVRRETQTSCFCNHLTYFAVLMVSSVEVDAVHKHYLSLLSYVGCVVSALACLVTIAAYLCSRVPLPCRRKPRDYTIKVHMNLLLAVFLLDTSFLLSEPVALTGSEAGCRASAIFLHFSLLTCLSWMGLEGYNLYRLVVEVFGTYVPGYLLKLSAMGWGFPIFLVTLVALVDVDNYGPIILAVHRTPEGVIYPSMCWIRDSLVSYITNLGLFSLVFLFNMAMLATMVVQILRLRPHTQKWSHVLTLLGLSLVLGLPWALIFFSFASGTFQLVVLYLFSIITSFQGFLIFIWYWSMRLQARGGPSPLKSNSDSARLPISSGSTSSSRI

The substance “native human collagen III (from UniProt P02461 154-1221) (ligand)” showed a Col3-induced increase in activity, SRE-luciferase assay in HEK293T cells greater than 2 fold.
